Results from the DeepSol protein solubility set.

Experiment: soluble on expression in E. coli; label from the status in PepcDB or PDB records
In the case of “NPYETFRIADELRRELVGDTVTYVVNRNINFTDICINDCKFCSFRNRKKYLLSLDEIKQKVEEAVEFGCTELCIQGGLLPDADLDFYLSILQAVRDVDKKIHIHAFSPMEVVHAARNSGMTVEEVLKELKKEGLGSMPGTAAEILDDSIRALICPRKLKTAEWVEVIKTAHRVGIPTTATIMYGHIDTWEHRINHLLLIKKIQQETGGITELIPLPFMSKNNELGRYAKGSSGFDDLLMIAIARILLYPEIKNIQASWVKMGQKLAQAALHVGANDLGGTLMEENISKSAGATSGEFMHPEELRELIKIAGRVPKQR”, the “soluble on expression in E. coli” value is reported as “not soluble”.
For “NQLSGLHSMEEQLAKKLQIKKCLVVQGDSDDTPWVREEMGRVAVEQLDMALTEKRNIVAVMGGSTMATVAEMMTTDFAKGRELLFVPGRGGIGEDLDNQANTICDKMATKTNTKHRVLYVPEQLGEEAYRSLLKEPAIQEGLRLVQSANAIILGIGDALAMAKRRHTGEDVLEKIIRRKAVGEAFGYYFDEQGEVVHKVPTFGLQFEDLAQIPHIIAVAGGTSKAKAIKSYMKSAPKNTILITDEGAAKSLLK”, the “soluble on expression in E. coli” value was “soluble”.
In the case of “NSMAEFQYNLNLEEEKKQLEIENLCFENMKKQMEFTRRARHDLKHHMKAVHTMAENNECKKITEYIETYLEHVSLKKPLVYCTNFTLNALIVYYVQQAEAHKIKLKLNIELPEETNVKEADLTVLFGNLLENAIDACDEVQENKRYINLKIYKPNSDSIVFYIENGFNGSIKKKNQQFLTTKANGNGIGIESVKYVVHKYNGDVNIKTDENKFIVSGVLLQPLDATK”, the “soluble on expression in E. coli” value is reported as “not soluble”.
In the case of “NYGMVPFAGIPYYACPFGRDSIITSWFLLPYYPQYAEGTLKFFAKIQGKKFNPLNEEEPGKIPHEFRFGELSHSRKMPFAPYYGTVDATPLYVILAAEYLRWTGDRELIERLKPNLTAAVEWILRRLDEGGGYIRYKGGLLANQGWKDSKEGIPTEEGTPTKPPVALVEVQGYAYKALMDAASLGLTSLDPKMLKKEAEELKKRFNKDFWCDGFYALALDGDNVPSKVVSSNMGHLLFTGIAEHQEKIAERLFEEDMFSGWGIRTLSSKEKAYNPFSYHNGSIWPHDNAVIAIGLASIGEKEKARMLAEAIFKTAKFLPNSQLPELFSGLESEYPLLCPRANAPQAWSAASVFALLTALLGLKA”, the “soluble on expression in E. coli” value is reported as “not soluble”.
For “NYKREIKQVENYLSARRESGHFIGKENIDIYYEKYVIPNSKNSIVISHGFRESMVKYNETIYYFLKNGYSVYGLEHRGHARSGRLGKDSTQTSVDNFDYYVDDFKKYVDTIVEPDNRGKNLFLYAHSMGGAIGGLFLERYPKYFKAAVLSSPMFEVDTGRYPEFLSRAVASVFNFVNLGDTYAPGHHEYSCESDFENSCTTSNIRYDYYLDKTNKSRKIENGGASFKWVKESLKATDEVTDGKNASKVTIPVLLFQAENDDIVRPGGQDKFAKEAKKCKLIVIKNSKHEIYREKDSIMVPYFNKVFTFLNNNK”, the “soluble on expression in E. coli” value was “not soluble”.
In the case of “PASQTAANNLGGALNFSVENRTVKRIKFRYNVAKPITTEGLSKLSKGLGEAFLDNTTKAKLAELADPLNARYTGKKPDEVIQAQLDGLEELFADIPPPKDNDKQYKALRDLKRAAVEHRASANKHSVMDNARFETSKTNLSGLSSESILTKIMSSVRDASAPGNATRVAEFMRQDPKLRAMLKEMEGSIGTLARVRLEPKDSLVDKIDEGSLNGTMTQSDLSSMLEDRNEMRIKRLVVFHTATQAENFTSPTPLVSYNSGANVSVTKTLGRINFVYGADQDKPIGYTFDGELSRPSASLKEAAGDLKKEGFELKS”, the “soluble on expression in E. coli” value is reported as “not soluble”.
For “PAVLELEGKKWRVENQENVSNLVIEDTELKQVAYIYKCVNTTLQIKGKINSITVDNCKKLGLVFDDVVGIVEIINSKDVKVQVMGKVPTISINKTDGCHAYLSKNSLDCEIVSAKSSEMNVLIPTEGGDFNEFPVPEQFKTLWNGQKLVTTVTEIAG”, the “soluble on expression in E. coli” value was “soluble”.
In the case of “PDDVSVLAANGEKAKLSGGFFASEKALTLPDGVNQVVFRYAPYFNQGNDRLSVESDVIVARFDTANAELTIEVPKYRNMRDAEENIKDLDWKLVDGSGKAVAVDQDKLIKPGMQIGRDYVREIEDYNR”, the “soluble on expression in E. coli” value is reported as “not soluble”.
In the case of “PDIDGGILFLEDVGEQPYRIERMLNTLYLSGILKKQRAIVFGNFRMEKIRDVYDPSYDFSAVANHVSRTAKIPVLTGFPFGHIADKITFPLGAHARIRMNGNSGYSVAFEGYPTLDASALTLDTLLPPPDLPIFPESGVADISE”, the “soluble on expression in E. coli” value is reported as “not soluble”.
In the case of “PDITATPAWDALARHHDQIGNTHLRQFFADDPGRGRELTVSVGDLYIDYSKHRVTRETLALLIDLARTAHLEERRDQMFAGVHINTSEDRAVLHTALRLPRDAELVVDGQDVVTDVHAVLDAMGAFTDRLRSGEWTGATGKRISTVVNIGIGGSDLGPVMVYQALRHYADAGISARFVSNVDPADLIATLADLDPATTLFIVASKTFSTLETLTNATAARRWLTDALGDAAVSRHFVAVSTNKRLVDDFGINTDNMFGFWDWVGGRYSVDSAIGLSLMTVIGRDAFADFLAGFHIIDRHFATAPLESNAPVLLGLIGLWYSNFFGAQSRTVLPYSNDLSRFPAYLQQLTMESNGKSTRADGSPVSADTGEIFWGEPGTNGQHAFYQLLHQGTRLVPADFIGFAQPLDDLPTAEGTGSMHDLLMSNFFAQTQVLAFGKTAEEIAADGTPAHVVAHKVMPGNRPSTSILASRLTPSVLGQLIALYEHQVFTEGVVWGIDSFDQWGVELGKTQAKALLPVITGAGSPPPQSDSSTDGLVRRYRTERGRAGLE”, the “soluble on expression in E. coli” value is reported as “soluble”.
In the case of “PDVRRDKPVTGEQIEVFANKLGEQWKILAPYLEMKDSEIRQIECDSEDMKMRAKQLLVAWQDQEGVHATPENLINALNKSGLSDLAESLTNDNETNS”, the “soluble on expression in E. coli” value is reported as “soluble”.
With “PFSWRHYIVLSRQDLEEYGEEIIAHEYAHIMHKHFRDLLLAEICLLFQWFNPAMWLFRKELKTVHEFEADESVLKAGIDAKKYQLLLI” the “soluble on expression in E. coli” value was “not soluble”.
In the case of “PFTYSIEATRNLATTERCIQDIRNAPVRNRSTQFQLAQQNMLAYTFGEVIPGFASAGINGMDYRDVIGRPVENAVTEGTHFFRDDFRVDSNAKAKVAGDIFEIVSSAVMWNCAARWNSLMVGEGWRSQPRYSRPTLSPSPRRQVAVLNLPRSFDWVSLLVPESQEVIEEFRAGLRKDGLGLPTSTPDLAVVVLPEEFQNDEMWREEIAGLTRPNQILLSGAYQRLQGRVQPGEISLAVAFKRSLRSDRLYQPLYEANVMQLLLEGKLGAPKVEFEVHTLAPEGTNAFVTYEAASLYGLAEGRSAVHRAIRELYVPPTAADLARRFFAFLNERMELVNG”, the “soluble on expression in E. coli” value is reported as “soluble”.
For “PGKGEGSPVGIAILGYGTVGSQVLRLLTENHNDFQHRAGGPLEIKGVAASSVEKHRGSLADQLGLLTDDARSLIARDDVDIVVEVIGGIDYPRELILEALHSGKSVVTANKALVAAHSEELAAAADEAGVDLYFEAAVAAAIPVLGPLRRSLAGDQIQSVAGIVNGTTNFILDAMDSTGASYDDMLAEATRLGYAEADPTADVEGHDAASKAAILASLAFHTRVTYADVYCEGISKITADDINAAKEAGFTIKLLAICERLNVDGVEKVSARVHPTLVPRNHPLASVDKSFNAIFVEAEAAGRLMFYGNGAGGNPTASAVLGDIVGAARNKVFGGRAPGESTYADLPIAPFGEVPTRFHIDMEVEDRVGVLADLAKTFSNHGISLRTVRQAEKDGHARLIVVTHTAKESELEATVEQIKNSDSVKKINSVIRLAG”, the “soluble on expression in E. coli” value was “soluble”.
With “PITDERVYESIGHYGGETVKIVRIEKARDIPLGATVRNEMDSVIISRIVKGGAAEKSGLLHEGDEVLEINGIEIRGKDVNEVFDLLSDMHGTLTFVLIPS” the “soluble on expression in E. coli” value was “soluble”.
In the case of “PKGSIIVSTRAPVGYVAIVDEDTTFNQGCKGLIPKSSEINTEFYCYYLLLIKRKLEQLSGGSTFKELPKKSLEELLIPLLPLPEQQKIAEILSTV”, the “soluble on expression in E. coli” value is reported as “soluble”.
In the case of “PLGSQTTHELTIPNNLIGCIIGRQGANINEIRQMSGAQIKIANPVEGSSGRQVTITGSAASISLAQYLINARLSSEKGMGCS”, the “soluble on expression in E. coli” value is reported as “soluble”.
For “PLNEVVRLHGSSGTSGKPTVVAYTQKDLEHWSSIIARSIYMAGGRKGDLLHNAYGYGLFTGGLGLHGGSEKLGCVTVPISGGNTQRQITLIQDFKPRVICGTPSYIMNIGETMKKMGIDPASTSIQYAILGSEPWSEEMRKNLETMFNMKAMDIYGLSEVIGPGVGMEC”, the “soluble on expression in E. coli” value was “not soluble”.
For “PMGDGTQVVFTTSLIPTEAIVQLDTKAPANSKQSPIFFISPIEGFASALEPLAKRLEVPAYGLQYTEAVPSDSLESAAKFFIKQLRTVQPKGPYKLAGYSFGCLLTYVMAGILEETNEVANVIMLDGAPSYVNWYTSSFKQRYTDGTNADNDNQSYGLAYFGIVLANIDYKALVRLLIVIPTWEEKLERFAELMSNEITQPVETIKKSATLFYKKLELADGYQPTLKLKTNVTLVKPTDNSAKLDEDYRLKEVCTKPVEVHTVEGNHRTFLIEDQSLKTIQSILKRL”, the “soluble on expression in E. coli” value was “soluble”.
In the case of “PNKFCPGCGHGIVNRIIAEVIEEHGYEKNHVLTLGVGCVCNMNFSWNGDKMQTAHGRASSTAIGVKVALPDTLVMTYQGDGDAYVIGLSETLNTAYRNHNVTVFVINNNNFAMTGGQMSWTTMPGQVTTTSVNGRDIKTTGSPLKVPEMVANFFDVAYVARGSVHSPKEIINLKKYIKNAIEAQLNGEGYSLVEILAPCPTNWGVSLEKSIKWMEEEIVPYYALGEFKQRDG”, the “soluble on expression in E. coli” value is reported as “not soluble”.
With “PNRLAEAGSRYLRQHSCDPVDWMPWGAEAFEKARRLDKPVFVSVGYSSCHWCHVMQRESFSDPMVAEVLNRAFVMVKVDREERPDVDTLLMRYCAIASGSCGWPLNVLLTPDGKPFYVATYLPKESLVALAVSLERVWRERRAEVLEVAERAGGLLEQHRLAFTPGR” the “soluble on expression in E. coli” value was “not soluble”.
For “PPIHPLTRAKLPDPYLMPVVSWNQSPQPPTTKEDALAKNPNREPIRCVDYHPFGVIGGRDILYGIVWGTRTA”, the “soluble on expression in E. coli” value was “not soluble”.
With “PQSAVLHYSGSYGIPATMTFERSGNAYKIVSTIKVPLYNIRFESGGTVVGNTLHPTYYRDIRRGKLYAEAKFADGSVTYGKAGESKTEQSPKAMDLFTLAWQLAANDAKLPPGLKITNGKKLYSVGGLNKAGTGKYSIGGVETEVVKYRVRRGDDAV” the “soluble on expression in E. coli” value was “not soluble”.
With “PQTLYQKLVETHTVARLDSQNVLLYADLHIMNEYTSPQAFAGLAEAGRTVLQPGQNVSVVDHIIPTHPVAIRIIEEPNSALQASNLKKNCERHGIPLFDANNRFQGIEHVIAPELGMIRPGMVVLCGDSHTTTYGALGALGFGIGTSEVEHVLATQTLVYRLAPT” the “soluble on expression in E. coli” value was “not soluble”.
With “PREQIIRLHASSGTTGKPTVVGYTANDISNWADLVARSLRAAGLRKGDMIHNAYGYGLFTGGLGAHYGIERLGATVVPMSGGQTEKQVGLITDFKPTGIMVTPSYMLNILEQYHKVGMDPRESSLQVGVFGAEPWTDAMRREVEEAFDMHAVDIYGLSEIMGPGVANECVETKDGPVI” the “soluble on expression in E. coli” value was “not soluble”.
With “PSEIFYQAKVREQKERHARYHDTTYNLEPDIKSTPGGLRDIHTLSWVARRHFGATSLYEMSRFGFLTDAEYRELVECQDFLWRVRFALHIELKRYDNRLTFAHQVQVARHLGYFGEGNRGIEMMMKEFFRTLRRVAELNKMLLKIFDKAILNNGEEAEAVIIDDDFQRRGNMIEARKPALFQARPETILDMFLHMASDSTIESVAPATMRQLRTARRRLN” the “soluble on expression in E. coli” value was “not soluble”.
For “PSKKNGRSGPQPHKRWVFTLNNPSEDERKKIRDLPISLFDYFIVGEEGNEEGRTPHLQGFANFVKKQTFNKVKWYLGARCHIEKAKGTDQQNKEYCSKEGNLLMECGAPRSQGQR”, the “soluble on expression in E. coli” value was “soluble”.
With “PTDILEHVLLPVATEDDALATVTALEPYEPEQVTALHVVEKGEGVPDKTPVAQSEEVAAESYAAVRTVFPDADDHTAYSRNVVEAIFHAADEVGASAIAYRSRGGGRLMQFLSGDLSLKLVTNAAIPVIALPRADS” the “soluble on expression in E. coli” value was “not soluble”.
